Test results from patent US20070160576A1, “IL-17A/F heterologous polypeptides and therapeutic uses thereof” (Genentech, Inc., priority 2001, published 2007).
Entries after “also recorded” stand apart in the source; their conditions may differ.

Legend:
IL-17R [1] = target: T1, IL-17R (Homo sapiens, UniProt Q96F46); assay: SPR competition for receptor binding to immobilized IL-17; settings: IL-17R 500 nM; IL-17F at 2 ┘M
T1 construct: the extracellular domains (ECDs) of either of the two receptors IL-17R (designated PRO1) and IL-17RH1 (PRO5801)
Protocol: The kinetics and affinity of IL-17, IL-17E (PRO10272), or IL-17F (PRO20110) binding to IL-17R or IL-17RH1 (PRO5801) were determined by SPR measurements on a Pharmacia BIAcore 1000 instrument (Phamacia Biosensor, Piscataway N.J.). IL-17 ligand or receptor was immobilized onto a flow cell of a CM5 sensor chip via random coupling to amino groups, N-hydroxysuccinimide chemistry, by using a protocol developed by the manufacturer. An immobilization level of about 500 resonance units (RU) was obtained for IL-17R, IL-17RH1, and IL-17F, whereas IL-17 and IL-17E immobilization levels were 1200 and 1500 RU, respectively. A strong signal was obtained for IL-17R binding to immobilized IL-17. […] After blocking unreacted sites with ethanolamine, binding measurements were performed using a flow rate of 25 ┘L/min. Sensorgrams-were obtained for a series of six, two-fold serially diluted protein solutions. The highest concentration used was 1000 or 500 nM protein and the solutions were prepared in the running buffer, PBS containing 0.05% Tween-20. […] Sensorgrams were evaluated according to a 1:1 binding model by non-linear regression analysis using software supplied by the manufacturer. […] The amount of bound receptor was determined from the resonance signal obtained after completion of the association phase. […]

TK-10 cells = assay: IL-8 and IL-6 production in TK-10 cells (ELISA of conditioned media); assay type: cell-based, human; settings: for IL-8 production: IL-8 ELISA
Protocol: Fractions were tested by incubation with TK-10 cells for 24 hours (0.033 microliters fraction/ml of cell culture media). Conditioned media was then collected and IL-8 and IL-6 concentration measurements were performed on each fraction by ELISA. […] Gels, blots, amino acid sequence and activity assays were run on this fraction (FIG. 3). Alternatively, fraction 31 and the remaining volume of fraction 32, from the HiLoad S Sepharose run were pooled and dialyzed against Buffer A for eight hours using a 10 kD cutoff membrane and passed through a 0.2 micron filter. […] Fractions 26-43 were assayed and protein concentrations were determined by amino acid analysis. Pure IL-17A/F was identified in fractions 31-33 as a single protein with apparent molecular mass of 30-35 kD. The concentrations of fractions 31, 32 and 33 were 0.258, 0.359 and 0.291 mg/ml respectively.
IL-17A/F, IL-17 and IL-17F were incubated with TK-10 cells at the indicated concentrations for 24 hours.
TK-10 conditioned media was collected and analyzed by IL-8 ELISA and IL-6 ELISA.

[2] = target: human IL-17 receptor (IL-17R, PRO1) (Homo sapiens, UniProt Q96F46); assay: Receptor/ligand interaction screening assay (immunoadhesin); assay type: binding
Protocol: In general, the assay is performed as follows. A PRO polypeptide of the present invention suspected of being a ligand for a receptor is expressed as a fusion protein containing the Fc domain of human IgG (an immunoadhesin). Receptor-ligand binding is detected by allowing interaction of the immunoadhesin polypeptide with cells (e.g. Cos cells) expressing candidate PRO polypeptide receptors and visualization of bound immunoadhesin with fluorescent reagents directed toward the Fc fusion domain and examination by microscope. Cells expressing candidate receptors are produced by transient transfection, in parallel, of defined subsets of a library of cDNA expression vectors encoding PRO polypeptides that may function as receptor molecules. Cells are then incubated for 1 hour in the presence of the PRO polypeptide immunoadhesin being tested for possible receptor binding. The cells are then washed and fixed with paraformaldehyde. The cells are then incubated with fluorescent conjugated antibody directed against the Fc portion of the PRO polypeptide immunoadhesin (e.g. FITC conjugated goat anti-human-Fc antibody). The cells are then washed again and examined by microscope. A positive interaction is judged by the presence of fluorescent labeling of cells transfected with cDNA encoding a particular PRO polypeptide receptor or pool of receptors and an absence of similar fluorescent labeling of similarly prepared cells that have been transfected with other cDNA or pools of cDNA. If a defined pool of cDNA expression vectors is judged to be positive for interaction with a PRO polypeptide immunoadhesin, the individual cDNA species that comprise the pool are tested individually (the pool is “broken down”) to determine the specific cDNA that encodes a receptor able to interact with the PRO polypeptide immunoadhesin.
In another embodiment of this assay, an epitope-tagged potential ligand PRO polypeptide (e.g., 8 histidine “His” tag) is allowed to interact with a panel of potential receptor PRO polypeptide molecules that have been expressed as fusions with the Fc domain of human IgG (immunoadhesins). Following a 1 hour co-incubation with the epitope tagged PRO polypeptide, the candidate receptors are each immunoprecipitated with protein A beads and the beads are washed. Potential ligand interaction is determined by Western blot analysis of the immunoprecipitated complexes with antibody directed towards the epitope tag. An interaction is judged to occur if a band of the anticipated molecular weight of the epitope tagged protein is observed in the Western blot analysis with a candidate receptor, but is not observed to occur with the other members of the panel of potential receptors.

IL-17R [3] = target: T1, IL-17R; assay: SPR (BIAcore) binding measurements
Protocol: (§1) The kinetics and affinity of IL-17, IL-17E (PRO10272), or IL-17F (PRO20110) binding to IL-17R or IL-17RH1 (PRO5801) were determined by SPR measurements on a Pharmacia BIAcore 1000 instrument (Phamacia Biosensor, Piscataway N.J.). IL-17 ligand or receptor was immobilized onto a flow cell of a CM5 sensor chip via random coupling to amino groups, N-hydroxysuccinimide chemistry, by using a protocol developed by the manufacturer. An immobilization level of about 500 resonance units (RU) was obtained for IL-17R, IL-17RH1, and IL-17F, whereas IL-17 and IL-17E immobilization levels were 1200 and 1500 RU, respectively. A strong signal was obtained for IL-17R binding to immobilized IL-17. […] After blocking unreacted sites with ethanolamine, binding measurements were performed using a flow rate of 25 ┘L/min. Sensorgrams-were obtained for a series of six, two-fold serially diluted protein solutions. The highest concentration used was 1000 or 500 nM protein and the solutions were prepared in the running buffer, PBS containing 0.05% Tween-20. The sensor chip surface was regenerated between binding cycles by injection of a 25 ┘L aliquot of 0.1 M acetic acid, 0.2 M NaCl, pH 3 to elute non-covalent bound protein. Sensorgrams were evaluated according to a 1:1 binding model by non-linear regression analysis using software supplied by the manufacturer. In separate experiments to measure competition between IL-17 variants for binding receptors, a fixed concentration of receptor was incubated with a varied concentration of IL-17 protein followed by injection of this mixture onto a flow cell having immobilized IL-17 protein. The amount of bound receptor was determined from the resonance signal obtained after completion of the association phase.

IL-17RH1 (PRO5801) = target: T2, IL-17RH1 (PRO5801) (Homo sapiens, UniProt Q9NRM6); assay: SPR (BIAcore) binding measurements
T2 construct: the extracellular domains (ECDs) of either of the two receptors IL-17R (designated PRO1) and IL-17RH1 (PRO5801)
T2 sequence (Q9NRM6 18-292 limits assumed): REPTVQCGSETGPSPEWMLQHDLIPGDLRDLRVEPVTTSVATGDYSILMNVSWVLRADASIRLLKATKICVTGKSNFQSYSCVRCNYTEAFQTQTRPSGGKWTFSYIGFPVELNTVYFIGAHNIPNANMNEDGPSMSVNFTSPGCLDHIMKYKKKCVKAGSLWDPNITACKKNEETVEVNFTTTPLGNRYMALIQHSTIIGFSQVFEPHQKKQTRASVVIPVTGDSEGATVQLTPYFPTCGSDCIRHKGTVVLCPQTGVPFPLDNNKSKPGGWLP
Protocol: as §1

Substance | competition for binding of IL-17R to immobilized IL-17 (IL-17R [1]) | IL-8 production (TK-10 cells; TK-10 cells, 24 hours) | binding to human IL-17 receptor (IL-17R, PRO1) [2] | SPR signal for binding to immobilized IL-17R (IL-17R [3]; IL-17R immobilized) | SPR binding to IL-17R (in words) (IL-17R [3]; IL-17R in solution, cytokine immobilized) | Koff × 10^4 (IL-17R [3]; immobilized IL-17, ligand IL-17R, value is Koff × 10^4) [s^−1] | Kon × 10^−5 (IL-17R [3]; immobilized IL-17, ligand IL-17R, value is Kon × 10^−5) [M^−1 s^−1] | SPR binding to IL-17RH1 (in words) (IL-17RH1 (PRO5801)) | difference in activity (potency) from IL-17 and IL-17F (TK-10 cells; IL-8 induction in TK-10 cells, greater activity than IL-17F) | IL-6 production (TK-10 cells; TK-10 cells, 24 hours, IL-6 ELISA) | IL-8 production (TK-10 cells; TK-10 cells, 24 hours, listed as Fraction 38)
IL-17: human IL-17 cytokine, SEQ ID NO:3 | efficiently block binding | production of IL-8 | binds to | weak signal | strong signal; also recorded: modest binding affinity | 6.7 | 0.093 | no binding was observed |  |  | 
IL-17A/F: novel human cytokine, covalent heterodimer of one IL-17 chain and one IL-17F chain |  | robustly induced IL-8 production; also recorded: induce IL-8 production; also recorded: potent IL-8 inducing activity |  |  |  |  |  |  | roughly an order of magnitude | induced production of IL-6 | robust activity
